In patent US20160136234A1:

What was measured:
Assay in all cases: cell-based or functional assay
BrSK1 (h) (human) = molecular target: T1, BrSK1 (h) (human) (UniProt Q8TDC3)
T1 sequence (looked up): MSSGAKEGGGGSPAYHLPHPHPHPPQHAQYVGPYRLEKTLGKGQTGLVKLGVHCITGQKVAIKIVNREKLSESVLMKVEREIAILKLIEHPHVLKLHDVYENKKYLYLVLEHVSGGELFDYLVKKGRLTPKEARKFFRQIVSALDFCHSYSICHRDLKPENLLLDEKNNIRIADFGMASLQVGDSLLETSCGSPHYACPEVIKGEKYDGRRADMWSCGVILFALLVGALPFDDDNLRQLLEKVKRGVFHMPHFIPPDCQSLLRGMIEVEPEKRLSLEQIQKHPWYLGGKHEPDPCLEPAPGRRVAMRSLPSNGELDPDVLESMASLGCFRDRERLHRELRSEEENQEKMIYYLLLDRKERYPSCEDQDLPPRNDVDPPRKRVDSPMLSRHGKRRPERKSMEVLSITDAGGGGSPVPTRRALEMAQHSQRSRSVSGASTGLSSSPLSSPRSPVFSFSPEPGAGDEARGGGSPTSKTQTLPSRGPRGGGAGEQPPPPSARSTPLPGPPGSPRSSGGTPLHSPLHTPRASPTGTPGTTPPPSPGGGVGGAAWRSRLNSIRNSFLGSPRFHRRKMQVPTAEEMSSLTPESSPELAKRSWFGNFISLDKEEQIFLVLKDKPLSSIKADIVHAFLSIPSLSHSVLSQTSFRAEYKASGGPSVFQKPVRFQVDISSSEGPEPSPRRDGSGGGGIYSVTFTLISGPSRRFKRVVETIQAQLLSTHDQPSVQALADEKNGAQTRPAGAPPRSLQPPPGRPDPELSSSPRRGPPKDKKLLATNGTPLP

[1] = molecular target: CDK7/cyclinH/MAT1 (h) (human) (UniProt P50613)
Sequence of CDK7/cyclinH/MAT1 (h) (human) (P50613 whole entry, chain 1 of 3): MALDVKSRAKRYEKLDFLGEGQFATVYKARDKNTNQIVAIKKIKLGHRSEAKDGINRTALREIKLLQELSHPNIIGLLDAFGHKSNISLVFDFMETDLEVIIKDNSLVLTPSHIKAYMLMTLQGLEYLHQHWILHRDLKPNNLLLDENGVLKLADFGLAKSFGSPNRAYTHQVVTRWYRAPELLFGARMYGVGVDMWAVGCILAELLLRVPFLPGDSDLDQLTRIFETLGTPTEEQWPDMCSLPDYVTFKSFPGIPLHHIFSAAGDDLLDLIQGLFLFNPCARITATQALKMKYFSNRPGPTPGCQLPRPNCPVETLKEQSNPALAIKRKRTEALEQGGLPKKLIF
Sequence of CDK7/cyclinH/MAT1 (h) (human) (P51946 whole entry, chain 2 of 3, further chain): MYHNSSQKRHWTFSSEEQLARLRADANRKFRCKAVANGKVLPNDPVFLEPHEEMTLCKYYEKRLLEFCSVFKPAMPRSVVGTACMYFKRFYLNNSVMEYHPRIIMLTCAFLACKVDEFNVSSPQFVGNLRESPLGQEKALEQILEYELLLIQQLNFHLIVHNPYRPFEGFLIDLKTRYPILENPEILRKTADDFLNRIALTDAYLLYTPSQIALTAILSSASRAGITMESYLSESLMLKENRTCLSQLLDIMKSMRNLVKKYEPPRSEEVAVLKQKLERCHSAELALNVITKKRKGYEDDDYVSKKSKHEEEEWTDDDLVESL
Sequence of CDK7/cyclinH/MAT1 (h) (human) (P51948 whole entry, chain 3 of 3, further chain): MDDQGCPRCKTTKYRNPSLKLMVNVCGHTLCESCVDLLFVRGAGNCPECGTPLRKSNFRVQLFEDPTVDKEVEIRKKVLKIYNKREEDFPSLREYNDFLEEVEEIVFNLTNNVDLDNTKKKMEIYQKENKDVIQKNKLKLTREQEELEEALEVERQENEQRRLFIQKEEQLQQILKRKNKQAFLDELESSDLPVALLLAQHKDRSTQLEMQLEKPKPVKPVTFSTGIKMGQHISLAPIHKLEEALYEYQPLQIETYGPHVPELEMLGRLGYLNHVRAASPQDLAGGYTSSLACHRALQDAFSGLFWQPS

CHK2 (h) (human) = CHK2 (h) (human) (UniProt O96017)
Sequence of CHK2 (h) (human) (O96017 5-543 limits assumed): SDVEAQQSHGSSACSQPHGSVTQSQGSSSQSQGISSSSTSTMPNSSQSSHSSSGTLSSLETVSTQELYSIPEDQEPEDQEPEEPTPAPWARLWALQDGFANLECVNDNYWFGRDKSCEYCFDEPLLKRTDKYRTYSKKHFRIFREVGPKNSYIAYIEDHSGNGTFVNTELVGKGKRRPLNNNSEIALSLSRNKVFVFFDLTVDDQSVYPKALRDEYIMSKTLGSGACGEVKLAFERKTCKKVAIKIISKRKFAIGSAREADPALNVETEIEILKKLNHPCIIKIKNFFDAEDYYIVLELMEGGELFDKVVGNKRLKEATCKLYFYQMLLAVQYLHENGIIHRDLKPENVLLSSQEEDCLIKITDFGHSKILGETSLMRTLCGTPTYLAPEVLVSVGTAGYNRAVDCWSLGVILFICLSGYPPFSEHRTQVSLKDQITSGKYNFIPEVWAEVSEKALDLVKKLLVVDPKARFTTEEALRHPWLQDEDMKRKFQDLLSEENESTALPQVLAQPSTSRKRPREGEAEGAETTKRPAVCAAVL

CK2 (h) (human) = CK2 (h) (human) (UniProt P68400)
[2] = molecular target: Calcium/Calmodulin-Dependent Protein Kinase I (human) (UniProt Q14012)
DRAK1 (h) (human) = molecular target: T2, DRAK1 (h) (human) (UniProt Q9UEE5)
T2 sequence (looked up): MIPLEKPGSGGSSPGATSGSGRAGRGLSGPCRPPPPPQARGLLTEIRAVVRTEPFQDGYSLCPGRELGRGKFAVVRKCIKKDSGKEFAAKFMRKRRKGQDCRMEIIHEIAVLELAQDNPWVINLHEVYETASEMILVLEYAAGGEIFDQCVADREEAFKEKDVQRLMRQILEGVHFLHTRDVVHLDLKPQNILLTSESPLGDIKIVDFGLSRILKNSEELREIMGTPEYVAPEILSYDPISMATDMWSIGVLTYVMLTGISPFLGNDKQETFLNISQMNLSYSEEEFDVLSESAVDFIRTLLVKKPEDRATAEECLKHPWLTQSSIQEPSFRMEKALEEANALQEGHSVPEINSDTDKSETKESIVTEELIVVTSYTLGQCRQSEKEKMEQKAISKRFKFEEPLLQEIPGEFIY

Fms (h) (human) = molecular target: T3, Fms (h) (human) (UniProt P07333)
T3 sequence (looked up): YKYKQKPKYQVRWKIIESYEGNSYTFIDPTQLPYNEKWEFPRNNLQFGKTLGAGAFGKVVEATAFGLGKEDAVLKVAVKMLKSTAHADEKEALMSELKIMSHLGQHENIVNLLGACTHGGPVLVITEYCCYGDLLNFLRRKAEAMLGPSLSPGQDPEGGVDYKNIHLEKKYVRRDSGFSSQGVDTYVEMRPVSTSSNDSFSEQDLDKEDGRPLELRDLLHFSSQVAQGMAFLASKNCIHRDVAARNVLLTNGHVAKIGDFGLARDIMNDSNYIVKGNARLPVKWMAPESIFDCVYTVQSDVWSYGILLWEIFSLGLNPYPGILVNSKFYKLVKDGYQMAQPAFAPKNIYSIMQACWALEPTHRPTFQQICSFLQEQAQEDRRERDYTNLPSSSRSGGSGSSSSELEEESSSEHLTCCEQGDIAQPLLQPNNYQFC

Fyn (h) (human) = Fyn (h) (human) (UniProt P06241)
GSK3α (h) (human) = GSK3α (h) (human) (UniProt P49840)
HIPK1 (h) (human) = HIPK1 (h) (human) (UniProt Q86Z02)
MLCK (h) (human) = molecular target: MLCK (h) (human)
Met (h) (human) = Met (h) (human) (UniProt P08581)
Sequence of Met (h) (human) (P08581 956-1390 limits assumed): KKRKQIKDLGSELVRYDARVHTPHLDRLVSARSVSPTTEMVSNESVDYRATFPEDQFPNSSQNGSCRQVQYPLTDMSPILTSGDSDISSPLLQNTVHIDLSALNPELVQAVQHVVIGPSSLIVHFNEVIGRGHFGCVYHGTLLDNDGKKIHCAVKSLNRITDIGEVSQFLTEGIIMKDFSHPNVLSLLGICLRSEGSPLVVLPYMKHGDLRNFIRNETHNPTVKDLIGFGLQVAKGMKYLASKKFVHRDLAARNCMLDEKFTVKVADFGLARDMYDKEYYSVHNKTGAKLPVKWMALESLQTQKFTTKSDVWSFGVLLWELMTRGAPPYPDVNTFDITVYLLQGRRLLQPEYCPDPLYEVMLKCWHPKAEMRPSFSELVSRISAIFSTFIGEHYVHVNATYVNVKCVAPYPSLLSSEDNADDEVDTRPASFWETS

NEK2 (h) (human) = molecular target: T4, NEK2 (h) (human) (UniProt P51955)
T4 sequence (looked up): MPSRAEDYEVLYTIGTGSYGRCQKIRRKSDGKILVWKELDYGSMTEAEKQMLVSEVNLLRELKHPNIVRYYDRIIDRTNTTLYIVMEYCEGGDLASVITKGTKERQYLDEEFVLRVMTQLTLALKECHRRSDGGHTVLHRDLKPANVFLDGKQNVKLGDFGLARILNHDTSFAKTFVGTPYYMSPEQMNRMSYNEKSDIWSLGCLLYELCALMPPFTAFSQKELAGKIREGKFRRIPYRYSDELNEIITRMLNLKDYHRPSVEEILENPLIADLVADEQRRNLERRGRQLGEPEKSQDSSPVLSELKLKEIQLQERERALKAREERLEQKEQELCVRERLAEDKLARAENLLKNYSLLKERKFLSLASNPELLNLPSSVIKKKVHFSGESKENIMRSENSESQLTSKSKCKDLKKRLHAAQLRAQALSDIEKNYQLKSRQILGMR

PDGFRβ (h) (human) = PDGFRβ (h) (human) (UniProt P09619)
Sequence of PDGFRβ (h) (human) (P09619 557-1106 limits assumed): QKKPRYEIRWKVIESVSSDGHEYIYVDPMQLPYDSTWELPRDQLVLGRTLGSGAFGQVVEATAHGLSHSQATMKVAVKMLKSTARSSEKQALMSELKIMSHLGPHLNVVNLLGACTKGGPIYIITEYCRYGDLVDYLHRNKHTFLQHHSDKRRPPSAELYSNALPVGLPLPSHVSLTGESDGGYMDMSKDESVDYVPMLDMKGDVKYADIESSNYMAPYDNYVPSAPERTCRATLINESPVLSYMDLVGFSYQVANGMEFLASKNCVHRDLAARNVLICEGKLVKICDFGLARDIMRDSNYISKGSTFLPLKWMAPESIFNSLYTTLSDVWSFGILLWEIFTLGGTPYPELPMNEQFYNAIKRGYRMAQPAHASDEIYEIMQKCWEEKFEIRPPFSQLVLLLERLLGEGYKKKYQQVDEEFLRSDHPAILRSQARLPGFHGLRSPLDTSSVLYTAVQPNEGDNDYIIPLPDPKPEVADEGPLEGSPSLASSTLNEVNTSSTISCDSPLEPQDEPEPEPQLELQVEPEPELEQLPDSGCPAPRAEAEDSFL

SGK2 (h) (human) = molecular target: T5, SGK2 (h) (human) (UniProt Q9HBY8)
T5 sequence (looked up): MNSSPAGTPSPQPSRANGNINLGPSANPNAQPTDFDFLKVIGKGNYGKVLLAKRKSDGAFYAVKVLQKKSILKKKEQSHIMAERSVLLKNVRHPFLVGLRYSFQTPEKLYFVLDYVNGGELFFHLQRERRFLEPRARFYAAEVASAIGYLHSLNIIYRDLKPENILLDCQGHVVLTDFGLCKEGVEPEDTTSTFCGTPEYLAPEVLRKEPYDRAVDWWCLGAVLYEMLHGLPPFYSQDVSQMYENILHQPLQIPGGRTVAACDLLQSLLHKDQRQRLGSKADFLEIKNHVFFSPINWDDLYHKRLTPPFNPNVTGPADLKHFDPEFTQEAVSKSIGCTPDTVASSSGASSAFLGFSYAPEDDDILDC

## MMI-0300 (peptide)
BrSK1 (h) (human)
  % activity at 100 µM: 67%
[1]
  % activity at 100 µM: 65%
CHK2 (h) (human)
  % activity at 100 µM: 66%
CK2 (h) (human)
  % activity at 100 µM: 90%
[2]
  % activity at 100 µM: 1%
DRAK1 (h) (human)
  % activity at 100 µM: 14%
Fms (h) (human)
  % activity at 100 µM: 45%
Fyn (h) (human)
  % activity at 100 µM: 74%
GSK3α (h) (human)
  % activity at 100 µM: 157%
HIPK1 (h) (human)
  % activity at 100 µM: 74%
MLCK (h) (human)
  % activity at 100 µM: 2%
Met (h) (human)
  % activity at 100 µM: 65%
NEK2 (h) (human)
  % activity at 100 µM: 78%
PDGFRβ (h) (human)
  % activity at 100 µM: 81%
SGK2 (h) (human)
  % activity at 100 µM: 56%
